# Data reported in patent US20080020978A1 (Amgen, published 2008).
# Read-outs that look alike come from different tables or passages of the source. Square brackets hold non-standard residues; d marks the D form. Ends that are not written are not given here.
# Legend:
# [1] = molecular target: T1, CGRP1 receptor (CRLR/RAMP1 complex) of human neuroblastoma SK-N-MC cells (human, UniProt Q16602 23-461; O60894 27-148); test: cell-based or functional assay
# [2] = molecular target: T1, CGRP1 receptor (CRLR/RAMP1 complex) of …; test: cell-based or functional assay; remark: listed apart in the source
# [3] = molecular target: T1, CGRP1 receptor (CRLR/RAMP1 complex) of …; test: cell-based or functional assay; remark: listed apart in the source
# [4] = molecular target: T1, CGRP1 receptor (CRLR/RAMP1 complex) of …; test: cell-based or functional assay; remark: listed apart in the source
# [5] = molecular target: T1, CGRP1 receptor (CRLR/RAMP1 complex) of …; test: 125I-hαCGRP competition, SK-N-MC membranes
# Experimental: CGRP₁ binding experiments. […] The plates were incubated at room temperature for 2 hour with shaking at 60 rpm, then the contents of each well were filtered over 0.5% polyethyleneimine (PEI)-treated (at least one hour) GF/C 96-well filter plates. The GF/C filter plates were washed 6 times with ice-cold 50 mM Tris, pH 7.5 and dried in an oven at 55 C for 1 hour. The bottoms of the GF/C plates were then sealed, and 40 μl Microscint™ 20 was added to each well, then the tops of the GF/C plates were sealed with TopSeal™-A, a press-on adhesive sealing film, and the GF/C plates were counted with TopCount NXT (Packard). The data were analyzed by using ActivityBase (IDBS) or Prizm (GraphPad) software.
# T1 sequence (Q16602 23-461, chain 1 of 2): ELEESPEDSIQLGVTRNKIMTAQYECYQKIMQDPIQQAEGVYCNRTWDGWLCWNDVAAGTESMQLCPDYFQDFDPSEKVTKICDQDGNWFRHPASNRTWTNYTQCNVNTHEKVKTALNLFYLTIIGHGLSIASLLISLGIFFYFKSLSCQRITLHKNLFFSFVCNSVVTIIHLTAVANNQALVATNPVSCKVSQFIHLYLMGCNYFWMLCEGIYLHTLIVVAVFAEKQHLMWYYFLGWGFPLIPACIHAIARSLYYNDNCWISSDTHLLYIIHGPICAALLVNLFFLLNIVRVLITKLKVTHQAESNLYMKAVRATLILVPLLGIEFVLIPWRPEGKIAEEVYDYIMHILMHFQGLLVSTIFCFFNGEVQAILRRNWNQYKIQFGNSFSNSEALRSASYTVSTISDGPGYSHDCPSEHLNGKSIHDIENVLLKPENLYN
# T1 sequence (O60894 27-148, chain 2 of 2): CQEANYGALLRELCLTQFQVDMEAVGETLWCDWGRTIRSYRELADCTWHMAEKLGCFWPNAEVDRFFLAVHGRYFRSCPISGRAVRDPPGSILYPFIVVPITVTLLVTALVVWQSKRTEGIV
binder,measurement,setting,value
Ac-WVTHRLAGLLSRSGGVKRNNFVPTDVGPFAF-NH2 (not fully specified (residue 17); printed as Ac-WVTHRLAGLLSRSGGVKRNNFVPTDVGPFAF-NH2) [SEQ ID NO 19],IC50,[1],0.98 nM
Ac-WVTHRLAGLLSQSGGVVRCNFVPTDVGPFAF-NH2 (not fully specified (residue 19); printed as Ac-WVTHRLAGLLSQSGGVVRCNFVPTDVGPFAF-NH2) [SEQ ID NO 36],fold loss of antagonist activity against SEQ ID NO:35,[2],> 12 fold
same,IC50,[3],4.69 nM
WVTHRLAGLLSRSGGVVKNNFVPTNVGSKAF-NH2 [SEQ ID NO 4],fold change in potency against SEQ ID NO:1,[2],> 7 fold
same,IC50,[4],0.64 nM
Ac-VTHRLAGLLSRSGGVVRKNFVPTDVGPFAF-NH2 [SEQ ID NO 6],Ki,[5],0.04 nM
same,IC50,[4],0.7 nM
Ac-WVTHRLAGLLSRSGGVVRKNFVPTDVGPFAF-NH2 (not fully specified (residue 19); printed as Ac-WVTHRLAGLLSRSGGVVRKNFVPTDVGPFAF-NH2) [SEQ ID NO 15],IC50,[1],0.42 nM
same,fold change in potency against SEQ ID NO:1,[2],~12 fold
same,fold loss of antagonist activity against SEQ ID NO:7,[2],~3 fold
Ac-WVTHRLAGLLSRSGGVVRCNFVPTDVGPFAF-NH2 (not fully specified (residue 19); printed as Ac-WVTHRLAGLLSRSGGVVRCNFVPTDVGPFAF-NH2) [SEQ ID NO 17],IC50,[1],1.9 nM
CGGGGGGGVTHRLAGLLSRSGGVVKNNFVPTDVGPFAF-NH2 (not fully specified (residue 1); printed as CGGGGGGGVTHRLAGLLSRSGGVVKNNFVPTDVGPFAF-NH2) [SEQ ID NO 20],IC50,[1],138 nM
same,fold loss of potency against SEQ ID NO:3,[2],> 190 fold
Ac-WVTHRLAGLLS[dR]SGGVVRCNFVPTDVGPFAF-NH2 (not fully specified (residue 19); printed as Ac-WVTHRLAGLLSrSGGVVRCNFVPTDVGPFAF-NH2) [SEQ ID NO 42],fold loss of antagonist activity against SEQ ID NO:41,[2],> 32 fold
same,IC50,[3],19.4 nM
Ac-WVTHRLAGLLSASGGVVRCNFVPTDVGPFAF-NH2 [SEQ ID NO 33],IC50,[3],2.75 nM
Ac-WVTHQLAGLLSQSGGVVRKNFVPTDVGPFAF-NH2 [SEQ ID NO 39],IC50,[3],0.53 nM
Ac-WVTHRLAGLLSQSGGVVRKNFVPTDVGPFAF-NH2 [SEQ ID NO 37],IC50,[3],0.56 nM
Ac-WVTHRLAGLLSRSGGVVRKNFVPTDVGPFAF-NH2 (not fully specified (residue 19); printed as Ac-WVTHRLAGLLSRSGGVVRKNFVPTDVGPFAF-NH2) [SEQ ID NO 16],IC50,[1],0.39 nM
same,fold change in potency against SEQ ID NO:1,[2],~12 fold
same,fold loss of antagonist activity against SEQ ID NO:7,[2],~3 fold
Ac-WVTHRLAGLLS[dR]SGGVVRCNFVPTDVGPFAF-NH2 (SMILES CC(=O)N[C@@H](Cc1c[nH]c2ccccc12)C(=O)N[C@H](C(=O)N[C@H](C(=O)N[C@@H](Cc1c[nH]cn1)C(=O)N[C@@H](CCCNC(=N)N)C(=O)N[C@@H](CC(C)C)C(=O)N[C@@H](C)C(=O)NCC(=O)N[C@@H](CC(C)C)C(=O)N[C@@H](CC(C)C)C(=O)N[C@@H](CO)C(=O)N[C@H](CCCNC(=N)N)C(=O)N[C@@H](CO)C(=O)NCC(=O)NCC(=O)N[C@H](C(=O)N[C@H](C(=O)N[C@@H](CCCNC(=N)N)C(=O)N[C@@H](CS)C(=O)N[C@@H](CC(N)=O)C(=O)N[C@@H](Cc1ccccc1)C(=O)N[C@H](C(=O)N1CCC[C@H]1C(=O)N[C@H](C(=O)N[C@@H](CC(=O)O)C(=O)N[C@H](C(=O)NCC(=O)N1CCC[C@H]1C(=O)N[C@@H](Cc1ccccc1)C(=O)N[C@@H](C)C(=O)N[C@@H](Cc1ccccc1)C(N)=O)C(C)C)[C@@H](C)O)C(C)C)C(C)C)C(C)C)[C@@H](C)O)C(C)C) [SEQ ID NO 41],IC50,[3],0.59 nM
Ac-WVTHRLAGLLSQSGGVVRCNFVPTDVGPFAF-NH2 [SEQ ID NO 35],IC50,[3],0.37 nM
Ac-WVTHRLAGLLSRSGGVVCNNFVPTDVGPFAF-NH2 (not fully specified (residue 18); printed as Ac-WVTHRLAGLLSRSGGVVCNNFVPTDVGPFAF-NH2) [SEQ ID NO 14],IC50,[1],2.2 nM
CGGGGGGGPTDVGPFAF-NH2 [SEQ ID NO 45],IC50,[4],56.6 nM
WFVPTDVGPFAF-NH2 [SEQ ID NO 96],IC50,[4],21.7 nM
Ac-WVTHRLAGLLSRSGGVVCNNFVPTDVGPFAF-NH2 [SEQ ID NO 9],IC50,[1],2.15 nM
same,IC50,[4],2.15 nM
Ac-WVTHRLAGLLSRSGGVVKNNFVPTDVGPFAF-NH2 (not fully specified (residue 18); printed as Ac-WVTHRLAGLLSRSGGVVKNNFVPTDVGPFAF-NH2) [SEQ ID NO 13],IC50,[1],2.15 nM
same,fold loss of antagonist activity against SEQ ID NO:5,[2],> 15 fold
Ac-WVTHRLAGLLSRSGGVVRKNFVPTDVGPFAF-NH2 [SEQ ID NO 7],IC50,[1],0.13 nM
same,IC50,[4],0.13 nM
Ac-WVTHRLAGLLSRSGGVCRNNFVPTDVGPFAF-NH2 (not fully specified (residue 17); printed as Ac-WVTHRLAGLLSRSGGVCRNNFVPTDVGPFAF-NH2) [SEQ ID NO 18],IC50,[1],0.16 nM
same,fold change in potency against SEQ ID NO:1,[2],~31 fold
CGGGGGGGVTHRLAGLLSRSGGVVKNNFVPTNVGSKAF-NH2 [SEQ ID NO 2],IC50,[4],21.1 nM
Ac-WVTHQLAGLLSQSGGVVRKNFVPTDVGPFAF-NH2 (not fully specified (residue 19); printed as Ac-WVTHQLAGLLSQSGGVVRKNFVPTDVGPFAF-NH2) [SEQ ID NO 40],IC50,[3],1.33 nM
Ac-WVTHRLAGLLSASGGVVRCNFVPTDVGPFAF-NH2 (not fully specified (residue 19); printed as Ac-WVTHRLAGLLSASGGVVRCNFVPTDVGPFAF-NH2) [SEQ ID NO 34],IC50,[3],6.2 nM
Ac-WVTHRLAGLLSQSGGVVRKNFVPTDVGPFAF-NH2 (not fully specified (residue 19); printed as Ac-WVTHRLAGLLSQSGGVVRKNFVPTDVGPFAF-NH2) [SEQ ID NO 38],fold change in potency against SEQ ID NO:36,[2],> 42 fold
same,IC50,[3],0.11 nM
WVTHXLAGLLSXSGGVVRKNFVPTDVGPFAF (Ac-WVTH(hR)LAGLLS(hR)SGGVVRKNFVPTDVGPFAF-NH2) [SEQ ID NO 25],fold loss of antagonist activity against SEQ ID NO:21 and 23,[2],~5 fold
same,IC50,[3],2.1 nM
"WVTHXLAGLLSXSGGVVRKNFVPTDVGPFAF (Ac-WVTH(Cit)LAGLLS(Cit)SGGVVRKNFVPTDVGPFAF-NH2; 20 k Da PEG, Amine linkage) [SEQ ID NO 32]",IC50,[3],3.74 nM
"WVTHXLAGLLSXSGGVVRKNFVPTDVGPFAF (Ac-WVTH(hR)LAGLLS(hR)SGGVVRKNFVPTDVGPFAF-NH2; 20 k Da PEG, Amine linkage) [SEQ ID NO 26]",IC50,[3],0.37 nM
WVTHXLAGLLSRSGGVVRKNFVPTDVGPFAF (Ac-WVTH(Cit)LAGLLSRSGGVVRKNFVPTDVGPFAF-NH2) [SEQ ID NO 27],IC50,[3],0.57 nM
WVTHXLAGLLSXSGGVVRKNFVPTDVGPFAF (Ac-WVTH(Cit)LAGLLS(Cit)SGGVVRKNFVPTDVGPFAF-NH2) [SEQ ID NO 31],fold loss of potency against SEQ ID NO:27 and 29,[2],~3 fold
same,Ki,[5],0.46 nM
same,IC50,[3],1.8 nM
"WVTHRLAGLLSXSGGVVRKNFVPTDVGPFAF (Ac-WVTHRLAGLLS(Cit)SGGVVRKNFVPTDVGPFAF-NH2; 20 k Da PEG, Amine linkage) [SEQ ID NO 30]",IC50,[3],0.96 nM
WVTHRLAGLLSXSGGVVRKNFVPTDVGPFAF (Ac-WVTHRLAGLLS(Cit)SGGVVRKNFVPTDVGPFAF-NH2) [SEQ ID NO 29],IC50,[3],0.58 nM
"WVTHXLAGLLSRSGGVVRKNFVPTDVGPFAF (Ac-WVTH(Cit)LAGLLSRSGGVVRKNFVPTDVGPFAF-NH2; 20 k Da PEG, Amine linkage) [SEQ ID NO 28]",IC50,[3],2.08 nM
Ac-WVTHRLAGLLSRSGGVVKNNFVPTDVGPFAF-NH2 (not fully specified (residue 18); printed as Ac-WVTHRLAGLLSRSGGVVKNNFVPTDVGPFAF-NH2) [SEQ ID NO 12],IC50,[1],3.05 nM
same,fold loss of antagonist activity against SEQ ID NO:5,[2],> 15 fold
